# Test: soluble on expression in E. coli; label from the status in PepcDB or PDB records
row,Sequence,soluble on expression in E. coli
1,PSFSFGGITPVSLQRSSMELISVQAVKHPKLLLYLSERGLQPSDASPFLSEVYYKVSRKCFFALGFPNDAGGWELRNPYFKGCFAPKAITTIKGTDSHKLLLFEGFMDFLSWRKLHPEGQAESIILNSLTLLPKLMPTLHPYPMIESLLDNDEAGDRATKQLIDAGLPVKDMRACYAPYKDINEYLTLAEQRKKILTPHKRGLRR,not soluble
2,PSGFPQNLHVTGLTTSTTELAWDPPVLAERNGRIISYTVVFRDINSQQELQNITTDTRFTLTGLKPDTTYDIKVRAWTSKGSGPLSPSIQSRTMPV,soluble
3,PSIKSAIQGKPVNPLNVSPTRLPILTADEKEFDVKIIVTGDRNQLADLEYVDEDFSTGLTMYTEVEEDIHLSASNLELYVGLVNWICSEYGFPSLDDGAFQRLLLAGMRLTEDQH,not soluble
4,PSPQSLDGKNLNFDQQLVIFESENCEFCAQFDRDILAHWQADIPMVATKNTNPPADWTLDKPLFAAPTIVLFREGKEVVRYTGYTGEKENFWQWL,not soluble
5,PTAQQLQLTTLDGKPFDPAGLKGKWLLGVADQAACPESCARKLFITRNSHASQGKNVDRVQRVWFITDDGEVPQKVLDAYRGTLMLRARPEQLGRYLLGQDAAAPAALLGPMWVIDPLGNLMLQFPPDVDGVKVRKDISRLLYNSR,not soluble
6,PTSSTTATLVMGDALAVALLKARGFTAEDFALSHPGGALGRKLLLRVNDIMHTGDEIPHVKKTASLRDALLEVTRKNLGMTVICDDNMMIEGIFTDGDLRRVFDMGVDVRRLSIADVMTPGGIRVRPGILAVEALNLMQSRHITSVMVADGDHLLGVLHMHDLLRA,not soluble
7,PTTRGYGETRGIVKENGLHTVCEEAGCPNIGECWDKKHATFMIMGDTCTRACAFCNVKTGMPGALDANEPAYVAEATRKLGLQHLVITSVDRDDLADGGAAHFAATIRAVREACPTTTIEILTPDFLRKDGALEVVVAAKPDVFNHNLETVPSRYLSVRPGARYFHSIRLLQRVKELDPSIFTKSGIMVGLGEERHEVLQVMDDLRSAEVDFLTIGQYLQPTRKHHAVMRYVTPDEFAGYQTTAYAKGFLMVSASPMTRSSHHAGDDFAKLKAA,not soluble
8,QDIAADIAPERVSNDPLVNLGEAVVEEEEKVGALEDLFMETKQDGVNTDDPIAHLKFSMQREDDYLIRDVEKPEPAPAKTIENTRQVVDDSFSIHSEFDIPNLIPEDWLGGVATSKESVEPAAEQAKQAAFIPEDFAHTKPVSPQASVVQPDVNQPQQPQYEAPLSHATSNVTQRAEPVSQKWEEVTQAFVPSAQPTQPETKAKEAQQGFVSNESLAIESVAHSSDIGKAFYEGLGISNPDLISNEALLFKQMGACLRLCIDNLQKDLHEVESLKGEQGLSEADSNLAELMLTLNSQNLLSPNELVEQMLDELNDHQIIFNKALNELLIEQSETNDPVMFANDVASKSMFTTKSKLWGEYLEFYANNRRQMNETSLKGLIKKNYTKAIKGSHA,not soluble
9,QDSKVFDPFLAAITPEIMPVKGKLAEKALPLIDQQLQGQPGSTVLLVSDGVNPATIKQYQAYFAGKPYQLLILAAGNTDIVSNNPMDLDSLQKLASQTNGRLVEVTVDNSDIEQLNRYVERNMQLNGESSMPWKD,not soluble
10,QGAVRKATAAEIAALPRQKVELVDPPFVHAHSQVAEGGPKVVEFTMVIEEKKIVIDDAGTEVHAMAFNGTVPGPLMVVHQDDYLELTLINPETNTLMHNIDFHAATGALGGGGLTEINPGEKTILRFKATKPGVFVYHCAPPGMVPWHVVSGENGAIMVLPREGLHDGKGKALTYDKIYYVGEQDFYVPRDENGKYKKYEAPGDAYEDTVKVMRTLTPTHVVFNGAVGALTGDKAMTAAVGEKVLIVHSQANRDTRPHLIGGHGDYVWATGKFNTPPDVDQETWFIPGGAAGAAFYTFQQPGIYAYVNHNLIEAFELGAAAHFKVTGEWNDDLMTSVLAPSGT,soluble
11,QGVDQSPKPLIIGPEEDYDPGYFNNESDIIFQDLEKLKSRPAHLGVFLRYIFSQADPSPLLFYLCAEVYQQASPKDSRSLGKDIWNIFLEKNAPLRVKIPEMLQAEIDSRLRNSEDARGVLCEAQEAAMPEIQEQIHDYRTKRTLGLGSLYGENDLLDLDGDPLRERQVAEKQLAALGDILSAYAADRSAPMDFALNTYMSHAGIRLREA,soluble
12,QIDYMTNSDMGYDYRNKLIIDVFGLDPQIVSTMRTEIAKIPGITGIGLTRGTPLNGGNNNSSEYRGRPLSMQIFSIDSVALSLFDLKMKPNGRKADKPDRTLYLSRSAYNDFDVANLPDGVIHWGKAGEFYYCGDAPEVHFGGFKEPHPSYLFIPYPQSSAWSWSVLVGYSEGADPEQLIQSIQAVYSRITGQPYTEILRSEDIIASHSEEERSLS,not soluble
13,QIVPLFFQDVTNQPIEGMKPRSALEVEGRDVFIANGCVGCHSQMIRPLRAETERYGHYSVAGESVWDHPFLWGSKRTGPDLARIGGRYSDEWHRVHLNNPRDLVPASIMPAYPFLAGKHIDSTQTAKKLQVLRTLGTPYSDADITGAAAAVQGKTEMDALVAYLQGLGTLIKSKR,not soluble
14,QIYSARYSGVDVYEFIHSTGSIMKRKKDDWVNATHILKAANFAKAKRTRILEKEVLKETHEKVQGGFGKYQGTWVPLNIAKQLAEKFSVYDQLKPLFDF,soluble
15,QLRDFSSIIQTCSGNIQRISQATAQIKNLMSQLGTKQDSSKLQENLQQLQHSTNQLAKETNELLKELGSLPLPLSTSEQRQQRLQKERLMNDFSAALNNFQAVQRRVSEKEKESIAR,soluble
16,QNKNSVELDGGAIFKNDKLIDKMDKSETEAYNFMIGKVSSGSMEVLNPETNRDFISLWILNSKTTTKGKFYGGKFHVKKIVNVKVAFLESQSPITYNKYMQKQIEQNAEKNIINNCNKIFNKYKEKNEDIFNVRDVYENIYKKGSPDIIKNTVIDIEPHVQIERSGKASTF,not soluble
17,QPDPPCGGRLNSKDAGYITSPGYPQDYPSHQNCEWIVYAPEPNQKIVLNFNPHFEIEKHDCKYDFIEIRDGDSESADLLGKHCGNIAPPTIISSGSMLYIKFTSDYARQGAGFSLRYEIFKTGSEDCSKNFTSPNGTIESPGFPEKYPHNLDCTFTILAKPKMEIILQFLIFDLEHDPLQVGEGDCKYDWLDIWDGIPHVGPLIGKYCGTKTPSELRSSTGILSLTFHTDMAVAKDGFSARYYLVHQEPLENFQCNVPLGMESGRIANEQISASSTYSDGRWTPQQSRLHGDDNGWTPNLDSNKEYLQVDLRFLTMLTAIATQGAISRETQNGYYVKSYKLEVSTNGEDWMVYRHGKNHKVFQANNDATEVVLNKLHAPLLTRFVRIRPQTWHSGIALRLELFGCRVTDAPCSNMLGMLSGLIADSQISASSTQEYLWSPSAARLVSSRSGWFPRIPQAQPGEEWLQVDLGTPKTVKGVIIQGARGGDSITAVEARAFVRKFKVSYSLNGKDWEYIQDPRTQQPKLFEGNMHYDTPDIRRFDPIPAQYVRVYPERWSPAGIGMRLEVLGCDWTHHHHHH,soluble
18,QQFFFENDALGQSSTDFATNFLNLWDNNREQLLNLYSPQSQFSVSVDSTIPPSTVTDSDQTPAFGYYMSSSRNISKVSSEKSIQQRLSIGQESINSIFKTLPKTKHHLQEQPNEYSMETISYPQINGFVITLHGFFEETGKPELESNKKTGKNNYQKNRRYNHGYNSTSNNKLSKKSFDRTWVIVPMNNSVIIASDLLTVRAYSTGAWKTASIAIAQAAGS,soluble
19,QQFHWVNDGYADFDGFLAALSSRKRKAIRKERAQAQGFGGQIRELTGGDLRPEHWDAFWRFYQDTGARKWGSPYLTRAFFDIAHQTMADDMVLVLAERDGIPVAGALNFIGREALFGRYWGCVEHHPCLHFELCYYRAIDWAIAHGLARVEAGAQGEHKLARG,not soluble
20,QRGIINQRRERLVAADLMGAATVTASTVKYIVEKANRIASGAPATVAEGTKKPYVKYADFDVVTESLSKVAALAKFTDEMIEDYDFVASWINNNLVYDLSVVEEKQLINGDGRGSNIKGLLNREGIQTHKSAKQADWFNDLFKAKNKVSQATNLEADGIMINPVNYEALRLTKDGNGQYIAGGPFQGQYGNGNILIDPPLWGIKTVVSNAVPAGTAIVGAFRQGATVLRKGGVRVDSANTNADDFENNLVTLRAEERLGLMVPLPAAFVKVTLEETTEEL,not soluble
21,QRKISNIGAQSSMKLEDIKTPSASLTTTLAGRLAGVVAVQRTGEPGKDAADIWIRGIATPNTATPLILVDGVERAFNDIDPEDIESLTTLKDASATAVYGVRGANGVIIIKTKPGK,not soluble
22,QSRERLVKWLQDAYAMEKEAETMMAAMASRIEHYPELKRRIEQHVEETQQQSAGVQRCLELLNGSIPTAKGMLSSVLASMHAAGNSMMTDEVTKGVGISYAFEHLEIASYRALVVAARSAGEQEVAQICEDILQQEIEMAEWLIEHQEAIVVAFLE,not soluble
23,QSVLTQPPSVSAAPGQKVTISCSGSTSNIGNNYVSWYQQHPGKAPKLMIYDVSKRPSGVPDRFSGSKSGNSASLDISGLQSEDEADYYCAAWDDSLSEFLFGTGTKLTVLGQPKAAPSVTLFPPSSEELQANKATLVCLISDFYPGAVTVAWKADSSPVKAGVETTTPSKQSNNKYAASSYLSLTPEQWKSHKSYSCQVTHEGSTVEKTVAPTECS,soluble
24,QTSAVQQKLAALEKSSGGRLGVALIDTADNTQVLYRGDERFPMCSTSKVMAAAAVLKQSETQKQLLNQPVEIKPADLVNYNPIAEKHVNGTMTLAELSAAALQYSDNTAMNKLIAQLGGPGGVTAFARAIGDETFRLDRTEPTLNTAIPGDPRDTTTPRAMAQTLRQLTLGHALGETQRAQLVTWLKGNTTGAASIRAGLPTSWTAGDKTGSGDYGTTNDIAVIWPQGRAPLVLVTYFTQPQQNAESRRDVLASAARIIAEGL,soluble
25,QVGLVRSKNVMIISPKYVAIQERLLRELDKGVTLVPIEGGYRNAKGMLLMTVIREKDFPRLKEAILEIDEEAFLISMSASEVYGKGFSLKKVADSYGVEATNANNLQ,not soluble
26,RDHIILIGWNEKTNRLLKDLQLGAPSKTVVLIDESLTEGPLIENVHFIRGHAADDGTLKRANITEAESVMITADQYKSETDADMLSVLTLLSVKGLNPLAYCIVEILTDRFVTNAERAGANQIIGTSEFISRAMLQHYQVKLR,not soluble
27,RDIAQRITGATLRAPPCHEEVREAIRDAVGRTLVSNRKVGVAVSGGLDSTILCSELDSLGITDLDLISIQALGSQDGITDLSALELKGEAWKSWRLTASRFDPATYWRDLRRAIAILGEPTQMTSAPLYLGLAEKAAEAGVVVLLLGEGADELFCGYRSYLPMLSGWSLRDFLFRPLERAVCQRLFSGEIQARCAAALDVFTRALPEGDQWTQLRAAEMSHNLEPLLLRADHTLMRCSIEGRTPFLHGDVADLAFSLPIDSLLSPNQTKVFLRQAYFRDLPAHFSTEIKKPFRAPVATWFVGPLKAWLTEEFSRQEAVFACLGIEPGGLEHVLTKTAQGHARMAKVAFCLLTLGFWIDWL,not soluble
28,RDLKSEVKKRNIQLQFDYPEILSKILLYSNAGLSIKSSIERIVRQYEDEKKKNPKEYHYAYEELKMATVKMKSGVSEINAINQYGERCGLHNYIKLANIIEQNIRRGTGELSFALENELNRALVERKNTALKRGSEISTK,not soluble
29,RDLLEQSLPDDIEEEIEKIICSESMVKGVRRIRTRNIGNYYAVEADILMDGGLSVALSHAATQRVEKLLRGRYGQPTHIVIHVEPFS,not soluble
30,RFNLFNYREATLIADYGHNPDAMEALVCAIDHIPAKKRTVVISAAGDRRNEDIRLQTRILGDVFDEVVLFQDKCQRGRADGEVLGLLREGLENAKRVRKVSEIRGEFKAIDTALTNLEAGELCLILIDQ,not soluble

# Reference: the DeepSol protein solubility set
